{"source": "patent US20190353661A1", "about": "(VANDERBILT UNIVERSITY, published 2019)", "binders": {"B1": {"name": "Human IgE mAb 1A8 (antibody, V domains shown)", "VH": "QLQLQESGPGLVKPSETLSLTCSVSDDSISTPSYFWTWIRQPPGKGLEWIASIYYTGTTYYNPSLKSRVTLSVDTPKRQFFLRLSSVTAADTAVYYCARYLDYVWLRAFDVWGQGAMVTVSS", "VL": "EIVLTQSPATLSLSPGERATLSCRASPSVGRFLAWYQQKPGQAPRLLIYDASQRATDIPARFSASGSGTDFTLTIDSLEPEDFAIYYCQHRSNWPVTFGGGTRVEIK", "notes": "Natural human IgE from a hybridoma"}, "B2": {"name": "Human IgE mAb 8F3 (antibody, V domains shown)", "VH": "QLQLQESGPGLVKPSETLSLTCTVSDASIDTPSYFWSWIRQPPGKGLEWIGSIYYTGNKYSNPSLKSRVTMSVDTPKRQFSLRLSSVTAADTAVYYCARYVDYVWLRAFDIWGQGTRVTVSS", "VL": "B1 VL with V29A, K39R, Q53K, I58T, A64G, T72N, D76A, I85V, V96L, R103K", "notes": "as for B1"}, "B3": {"name": "Human IgE mAb 1C14 (antibody, V domains shown)", "VH": "QVQLQESGPGLVKPSQTLSLTCTVSGGSISSGGFFWGWIRQHPGRDLEWIGYIFYTGSTNYNPSLKNRVTLSVDTSKNHFSLNLTSVTVADTAVYYCARQGGVRGNYYFMDVWGKGTTVTVSS", "VL": "DIQMTQSPSSLSASVGDRVTITCRASQSISNYLNWYQQKPGKAPKLLIYAASRLQSGVPSRFSGSGSGTELTLTISSLQPEDFATYFCQQSYNTPYSFGQGTKVEIK", "notes": "as for B1"}, "B4": {"name": "Human IgE mAb 1B7 (antibody, V domains shown)", "VH": "EFQLQESGPGLVKPSETLSLNCSVSGGSISNNYWNWIRQPPGKGLEWIGYISYSGRTHYNPSLKSRVSISLHTSKNHFSLKLTSVAAADTAMYYCARESTYSYKLGDAFDIWGQGTMVTVSA", "VL": "not shown"}, "B5": {"name": "Human IgE mAb 14H4 (antibody, V domains shown)", "VH": "EVQLVQSGAEVKRAGESLKISCKGSGYPFATYWVGWVRQMPGKGLEWMTIIYPEDSDTRYSPSFQDHVTISADKSLSTAYLQWSSLKASDTAMYYCARVSRYYYDSRSYYPDAFDIWGQGTMVTVSS", "VL": "SYELTQPPSVSVSPGQTASITCSGDKLGDKYVCWYQQKPGRSPVLVVHQDTKRPSGIPERFSGSNSGDTATLTISGTQAMDEADYYCQAWDSTIGVFGPGTRVTVL", "notes": "as for B1"}}, "experiment_in_all_cases": "Phadia diagnostics and/or Western blot", "key": {"Peanut allergen Ara h 6": {"target": "T1, Peanut allergen Ara h 6 (peanut, UniProt Q647G9 22-145)", "T1 sequence (looked up)": "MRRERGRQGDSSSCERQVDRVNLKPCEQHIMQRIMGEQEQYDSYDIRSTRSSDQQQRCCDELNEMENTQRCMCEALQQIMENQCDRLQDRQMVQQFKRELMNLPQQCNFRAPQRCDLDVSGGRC"}, "[1]": {"target": "T2, Dust mite allergen Der p 1 (dust mite (Dermatophagoides …, UniProt P08176 99-320))", "T2 sequence (looked up)": "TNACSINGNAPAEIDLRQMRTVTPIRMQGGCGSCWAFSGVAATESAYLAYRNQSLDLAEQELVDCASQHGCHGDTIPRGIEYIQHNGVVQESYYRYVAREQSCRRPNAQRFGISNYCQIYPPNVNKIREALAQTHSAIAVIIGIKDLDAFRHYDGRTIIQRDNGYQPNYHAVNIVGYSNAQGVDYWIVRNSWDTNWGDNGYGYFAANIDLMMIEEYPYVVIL"}, "Cat allergen Fel d 1": {"target": "T3, Cat allergen Fel d 1 (cat, UniProt P30438 23-92; P30440 18-109)", "T3 sequence (looked up) 1": "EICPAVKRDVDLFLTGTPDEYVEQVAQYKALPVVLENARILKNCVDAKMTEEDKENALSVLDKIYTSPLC", "T3 sequence (looked up) 2": "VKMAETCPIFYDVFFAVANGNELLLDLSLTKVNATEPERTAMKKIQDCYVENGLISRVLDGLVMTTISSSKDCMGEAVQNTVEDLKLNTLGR"}, "[2]": {"target": "T4, Aspergillus fumigatus allergen Asp f 1 (Aspergillus fumigatus, UniProt P67875 28-176)", "T4 sequence": "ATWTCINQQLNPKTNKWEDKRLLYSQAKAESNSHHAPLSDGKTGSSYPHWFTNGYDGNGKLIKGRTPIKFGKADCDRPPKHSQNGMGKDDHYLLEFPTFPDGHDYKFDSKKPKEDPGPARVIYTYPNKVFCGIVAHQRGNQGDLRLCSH"}}, "note": "Positions count from the first letter of the chain named.", "data": [{"binder": "B1", "values": [{"measurement": "binding result", "setting": "Peanut allergen Ara h 6", "value": "binds"}]}, {"binder": "B2", "values": [{"measurement": "binding result", "setting": "Peanut allergen Ara h 6", "value": "binds"}]}, {"binder": "B3", "values": [{"measurement": "binding result", "setting": "[1]", "value": "binds"}]}, {"binder": "B4", "values": [{"measurement": "binding result", "setting": "Cat allergen Fel d 1", "value": "binds"}]}, {"binder": "B5", "values": [{"measurement": "binding result", "setting": "[2]", "value": "binds"}]}]}
